# Experimental data published in paper doi:10.1101/2022.02.28.482149 (bioRxiv, 2022).
# Biological target: the molecule itself
# Experiment: crystal structure
protein,measurement,value
"MaFRSA (Methanomethylophilus alvus pyrrolysyl-tRNA synthetase, MaPylRS N166A:V168A) (enzyme) MTVKYTDAQIQRLREYGNGTYEQKVFEDLASRDAAFSKEMSVASTDNEKKIKGMIANPSRHGLTQLMNDIADALVAEGFIEVRTPIFISKDALARMTITEDKPLFKQVFWIDEKRALRPMLAPNLYSVMRDLRDHTDGPVKIFEMGSCFRKESHSGMHLEEFTMLALADMGPRGDATEVLKNYISVVMKAAGLPDYDLVQEESDVYKETIDVEINGQEVCSAAVGPHYLDAAHDVHEPWSGAGFGLERLLTIREKYSTVKKGGASISYLNGAKIN",binding result,binds
